From IntAct's records for PubMed 22940691

B1: Endoglin (Homo sapiens), P17813 (parent)
chain: MDRGTLPLAVALLLASCSLSPTSLAETVHCDLQPVGPERGEVTYTTSQVSKGCVAQAPNAILEVHVLFLEFPTGPSQLELTLQASKQNGTWPREVLLVLSVNSSVFLHLQALGIPLHLAYNSSLVTFQEPPGVNTTELPSFPKTQILEWAAERGPITSAAELNDPQSILLRLGQAQGSLSFCMLEASQDMGRTLEWRPRTPALVRGCHLEGVAGHKEAHILRVLPGHSAGPRTVTVKVELSCAPGDLDAVLILQGPPYVSWLIDANHNMQIWTTGEYSFKIFPEKNIRGFKLPDTPQGLLGEARMLNASIVASFVELPLASIVSLHASSCGGRLQTSPAPIQTTPPKDTCSPELLMSLIQTKCADDAMTLVLKKELVAHLKCTITGLTFWDPSCEAEDRGDKFVLRSAYSSCGMQVSASMISNEAVVNILSSSSPQRKKVHCLNMDSLSFQLGLYLSPHFLQASNTIEPGQQSFVQVRVSPSVSEFLLQLDSCHLDLGPEGGTVELIQGRAAKGNCVSLLSPSPEGDPRFSFLLHFYTVPIPKTGTLSCTVALRPKTGSQDQEVHRTVFMRLNIISPDLSGCTSKGLVLPAVLGITFGAFLIGALLTAALWYIYSHTRSPSKREPVVAVAAPASSESSSTNHSIGSTQSTPCSTSSMA

Variants of: B1
Settings: with arrb2_human ARRB2, P32121
Chain of arrb2_human ARRB2, P32121 (P32121 whole entry): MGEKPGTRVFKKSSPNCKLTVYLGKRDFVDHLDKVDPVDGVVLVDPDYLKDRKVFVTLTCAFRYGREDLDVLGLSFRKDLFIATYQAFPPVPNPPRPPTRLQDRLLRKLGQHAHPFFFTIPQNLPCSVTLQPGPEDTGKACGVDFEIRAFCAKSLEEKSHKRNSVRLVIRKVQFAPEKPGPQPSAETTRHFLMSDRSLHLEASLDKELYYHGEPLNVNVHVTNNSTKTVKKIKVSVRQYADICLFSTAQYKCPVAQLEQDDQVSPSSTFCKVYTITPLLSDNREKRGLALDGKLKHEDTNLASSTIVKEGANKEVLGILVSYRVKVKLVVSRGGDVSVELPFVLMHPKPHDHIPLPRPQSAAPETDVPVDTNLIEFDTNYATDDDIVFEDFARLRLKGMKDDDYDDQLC

Variant	effect of a mutation on the interaction
T650A	disrupting interaction
